{"source": "paper PMC10980823", "about": "“Structural basis of Acinetobacter type IV pili targeting by an RNA virus” (Nature Communications, 2024)", "binders": {"B1": {"name": "AP205 maturation protein (Mat) (natural protein, Acinetobacter phage AP205)", "chain": "MNMYKWVPESIRDSGEGQPSYSNNGDYAPSGPWVAAGIHTMPQSLRDSMRNSIMVTAQARRDVIGPEWGPDGRFTGYASVIGTPDPKPADIVNKFTVERRPVSNGNFQQRVKAGDIVVAPYTSDGKITVKLVAGQKDISSTPDYDYRIDSSLASSAGFVVAGERWYYTKRHFIIPRYFQNWRMRRRKYVTGWVMPTFYSPKEIFNRLKDSLVPDTGLVTQVWADNNTKRMDFLTAMAEIPQTLSSFLDALGYLGSLIKDFKRRRFFLNKAHQRIRNKLGVSFAERRSQIVSKYDRKIASARKPAIIVKLRQRKEKALKALDKMRVREEKKMIREFATQAASLWLSFRYEIMPLYYQSQDVLDVIANSTSEFMTSRDFVAKAINIGIPLEWNLDQENLVSQPRHNVMVKSKLSPENNIGKTLSVNPFTTAWELLTLSFVVDWFVNFGDVIAGFTGGYSDDSGATASWRFDDKKVFHLKNIPSAMVIVDINFYTRQVIDPRLCGGLAFSPKLNLFRYLDAMSLSWNRSRLKISRAT", "notes": "maturation protein (Mat) of Acinetobacter phage AP205, 534 amino acids as printed; native protein in the virion, where two copies (inner and outer Mat) form a dimer; Native virion protein; models of both copies are in PDB 8TOC; also called inner Mat; outer Mat; source: in AP205 virions grown on A. gp16, purified (CsCl gradient)"}}, "key": {"[1]": {"biological_target": "Acinetobacter genomosp. 16 type IV pilus (T4P) mature pilin (Acinetobacter genomosp. 16 (endogenous))", "experiment": "cryo-EM structure; purified AP205 and purified T4P mixed at 1:1 volume ratio at 30 C for 30 min; AP205 with two T4P at 3.6 A, with one T4P at 4.2 A; local maps of inner Mat-T4P at 8.2 A and outer Mat-T4P at 8.6 A"}, "[2]": {"biological_target": "the molecule itself", "experiment": "cryo-EM structure; single-particle cryo-EM of purified apo AP205; asymmetric reconstruction of the mature virion at 3.1 A; icosahedral T=3 (3.2 A) and T=4 (3.4 A) particles from the same data"}, "[3]": {"biological_target": "B1", "experiment": "cryo-EM structure; single-particle cryo-EM of purified apo AP205; asymmetric reconstruction of the mature virion at 3.1 A; icosahedral T=3 (3.2 A) and T=4 (3.4 A) particles from the same data", "settings": "both partners purified"}}, "note": "Values joined by “and” are separate entries in the source; they are usually repeats but may differ in a detail not shown here. Equal values may be shown once."}
{"binder": "AP205 mature virion (complex) chain 1: MNMYKWVPESIRDSGEGQPSYSNNGDYAPSGPWVAAGIHTMPQSLRDSMRNSIMVTAQARRDVIGPEWGPDGRFTGYASVIGTPDPKPADIVNKFTVERRPVSNGNFQQRVKAGDIVVAPYTSDGKITVKLVAGQKDISSTPDYDYRIDSSLASSAGFVVAGERWYYTKRHFIIPRYFQNWRMRRRKYVTGWVMPTFYSPKEIFNRLKDSLVPDTGLVTQVWADNNTKRMDFLTAMAEIPQTLSSFLDALGYLGSLIKDFKRRRFFLNKAHQRIRNKLGVSFAERRSQIVSKYDRKIASARKPAIIVKLRQRKEKALKALDKMRVREEKKMIREFATQAASLWLSFRYEIMPLYYQSQDVLDVIANSTSEFMTSRDFVAKAINIGIPLEWNLDQENLVSQPRHNVMVKSKLSPENNIGKTLSVNPFTTAWELLTLSFVVDWFVNFGDVIAGFTGGYSDDSGATASWRFDDKKVFHLKNIPSAMVIVDINFYTRQVIDPRLCGGLAFSPKLNLFRYLDAMSLSWNRSRLKISRAT chain 2: ANKPMQPITSTANKIVWSDPTRLSTTFSASLLRQRVKVGIAELNNVSGQYVSVYKRPAPKPEGCADACVIMPNENQSIRTVISGSAENLATLKAEWETHKRNVDTLFASGNAGLGFLDPTAAIVSSDTT", "values": [{"measurement": "stoichiometry N", "setting": "[1]", "value": "2 and 1"}]}
{"binder": "B1", "values": [{"measurement": "stoichiometry N", "setting": "[2]", "value": 2}]}
{"binder": "AP205 coat protein (Coat) (natural protein, coat protein (Coat) of Acinetobacter phage AP205; native protein of the capsid shell; also forms T=3 and T=4 icosahedral particles; also called Coat-dimer; Coat shell; source: in AP205 virions and VLPs grown on A. gp16, purified (CsCl gradient)) ANKPMQPITSTANKIVWSDPTRLSTTFSASLLRQRVKVGIAELNNVSGQYVSVYKRPAPKPEGCADACVIMPNENQSIRTVISGSAENLATLKAEWETHKRNVDTLFASGNAGLGFLDPTAAIVSSDTT", "values": [{"measurement": "binding result", "setting": "[3]", "value": "binds"}, {"measurement": "stoichiometry N", "setting": "[2]", "value": 178}]}
